# Measurements from patent US9073982B2, “Targets for regulation of angiogenesis” (The University of North Carolina at Chapel Hill, priority 2008, dated 2015).
# “Also recorded” adds a separate entry of the source.
# Tests used:
# [1] = test system: NFATc3; assay: Western blot for nuclear NFATc3 in MEC cells; assay type: cell-based, mouse; settings: SFRP2 700 pM
# Experimental: To evaluate the role of the non-canonical Wnt/Ca^++ pathway in SFRP2 induced angiogenesis, nuclear dephosphorylated NFATc3 protein levels were compared in control and SFRP2-treated endothelial cells. MEC cells were plated in 12-well plates and allowed to attach overnight. The next day, the media was changed and added to the wells with and without SFRP2 (700 pM). Cells were incubated for 1, 2, 4, 8 and 16 hours, and the nuclear proteins were extracted by using NE-PER™ nuclear and cytoplasmic extraction reagent from PIERCE (Pierce Biotechnology) as described in the manufacturer's manual. The Western blot analysis was performed using standard methods, with primary antibody to the dephosphorylated (active) β-catenin antibody or NFATc3.
# [2] = test system: chick chorioallantoic membrane; assay: Chick chorioallantoic membrane (CAM) assay; assay type: in vivo, chicken; settings: 100 ng per disk, evaluated day 3 after disk placement
# Experimental: On day 4, the eggs were cracked into sterile Petri dishes and incubated at 99° F. in 3% CO2, 65% humidity. For application of drug onto the CAM, Whatman grade 1 filter paper was cut into circles with a 6 mm diameter paper punch and autoclaved. To decrease inflammatory effects of the disk, the discs were soaked in 1 ml of 3.0 mg/ml cortisone acetate in absolute ETOH and air dried for 60 min in a laminar flow hood. On day 8, 5 disks per egg were placed on the outer third of the CAM, 2-3 mm from a vessel. Control PBS 7 μl was added to the discs for the control CAMs, and SFRP2 100 ng/7 μl PBS was added to the disks for the treated CAMs (n=5 control disks and 5 SFRP2-treated disks). The CAMs were evaluated under a stereomicroscope on day 3 after disk placement. Pictures were taken with a Wild M-4 70 Macrosystem, and angiogenesis was quantified using Metamorph Software with an angiogenesis module.
# Fertilized chickens eggs (NC State University Chicken Research Faint) were incubated at 100.4° F. in an egg turner (Model#1588 Genesis Hova-Bator, GQF Mfg. Co., Inc.) for 3 days. […] CAMs were evaluated under a stereomicroscope on day 3 after disk placement. Pictures were taken with a Wild M-4 70 Macrosystem and angiogenesis was quantified using Metamorph Software with an angiogenesis module.
# [3] = test system: mouse endothelial cells (MEC); assay: Scratch wound assay on mouse endothelial cells; assay type: cell-based; settings: SFRP2 0.7 pM-700 pM, 16 to 32 hours
# Experimental: The migration properties of SFRP2 on mouse endothelial cells (MEC) cells were evaluated using a scratch wound assay. Mouse endothelial cells were plated at 10,000 cells/well into a 96 well plate and allowed to become confluent in DMEM with 10% FBS. The cells were quiesced in DMEM without serum for 18 hours. The wound was formed using a 1 ml pipette tip and a 0.7 pM-700 pM dose curve of mouse recombinant SFRP2 (US Biologicals, Swampscott) was added to the cells. Each concentration was performed in triplicate and the experiment was repeated three times with similar results. Migration was measured from 16 to 32 hours. Migration distance was measured at each time point. Statistical differences between SFRP2 and control were evaluated with an unpaired two-tailed Student's t-test, with p<0.05 being significant.
molecule,measurement,setting,value
"SFRP2: mouse recombinant SFRP2 (US Biologicals), secreted frizzled-related protein 2 (protein) LFLFGQPDFSYKRSNCKPIPANLQLCHGIEYQNMRLPNLLGHETMKEVLEQAGAWIPLVMKQCHPDTKKFLCSLFAPVCLDDLDETIQPCHSLCVQVKDRCAPVMSAFGFPWPDMLECDRFPQDNDLCIPLASSDHLLPATEEAPKVCEACKTKNEDDNDIMETLCKNDFALKIKVKEITYINRDTKIILETKSKTIYKLNGVSERDLKKSVLWLKDSLQCTCEEMNDINAPYLVMGQKQGGELVITSVKRWQKGQREFKRISRSIRKLQC",nuclear NFATc3 level,[1],increased at 30 minutes in the nuclear fraction
same,"angiogenesis on the CAM (branch points, segments, tube area, tube length)",[2],induced angiogenesis on the CAM; also recorded: induces angiogenesis on the chorioallantoic membrane
same,endothelial cell migration,[3],increases endothelial cell migration
